From US12559749B2, “Methods of rescuing stop codons via genetic reassignment with ACE-tRNA” (UNIVERSITY OF IOWA RESEARCH FOUNDATION, priority 2017, dated 2026)

System: native stop codons (TAA, TAG, TGA), 3′UTR ribosome density
Assay: Ribosome footprint profiling of transcriptome-wide 3′UTRs, HEK293 cells
Assay type: cell-based, human
Source text: The question was raised whether ACE-tRNAs that show efficacious suppression of premature stop codons may also induce global readthrough of native stop codons. To address this potential “off target” suppression, a transcriptome-wide quantitative profile of actively engaged ribosomes on all cellular transcripts was obtained by generating libraries of ribosome footprints from HEK293 cells expressing exogenous ACE-tRNAs or a control mock plasmid (puc57GG). Streptomycin was removed from the growth media to prevent readthrough artifacts. For comparison, the ribosome footprint library was also generated from cells in the presence or absence of G418 (150 μM, 48 h). […] Only transcripts with a minimum threshold of 5 RPKM in the coding sequence and 0.5 RPKM in the 3′UTR in two replicate libraries were included for the quantitation comparison (254 transcripts in G418 and 495-748 transcripts in ACE-tRNAs). […] ACE-tRNAs examined here had no detectable change of 3′UTR ribosome density with the exception of ACE-tRNA Gln-UAA and Arg-UGA which induced approximately a 2-fold increase in 3′UTR ribosome density for the cognate stop codon complimentary to the ACE-tRNA anticodon. Understanding the biological significance of 2-fold readthrough of protein stops will require further study, but this effect is substantially lower compared to the 100- to 1000-fold suppression of PTC for the same ACE-tRNA.
Multiple in-frame stop codons are frequently found at the end of genes 37-39 and may cause a minor difference in overall 3′UTR ribosome density for ACE-tRNA and G418 treatment. Ribosome occupancy was examined at each nucleotide in the 3′UTR within a 60 nt region downstream of the stop codons. […] Reads were normalized per total million-mapped reads, compared against control cells, and reported as a log 2-fold change as in panel A. More than 5,200 transcripts were mapped to at least 1 footprint in the region of interest. […] Taken together, the ribosome profiling data argue that efficiency of native stop codon suppression by ACE-tRNAs is generally low, and markedly less than the level of PTC suppression.
Ribosome Footprint Profiling Library preparation. HEK293 cells transiently transfected with ACE-tRNAs and control plasmid (puc57GG) were grown in standard grown media in the absence of Pen-Strep for 48 h. Libraries were prepared as described^55, with a few modifications. Briefly, cells were rapidly cooled by addition of ice-cold PBS, lysed in lysis buffer (20 mM Tris-HCl/pH7.4, 150 mM NaCl, 5 mM MgCl2, 1 mM DTT, 1% (v/v) Triton X-100, and 25 U ml^−1 Turbo DNase I) for 10 min on ice, and triturated with ten times through a 26-G needle. […]

B1: Glychr19.trna2: top performing glycine ACE-tRNA UGA, SEQ ID NO: 53 (nucleic acid)
chain: GCGUUGGUGGUAUAGUGGUUAGCAUAGCUGCCUUCAAAGCAGUUGACCCGGGUUCGAUUCCCGGCCAACGCA
modifications: chemistry not given here
readthrough of native stop codons / effect on global translation termination (discussion of profiling data): no significant effect on global translation termination
ribosome occupancy in the early region of 3′UTR downstream of stop codons (per nucleotide, -35 to +65 nt): no observable change of ribosome occupancy
